The test concerns the target Tat-PYC-Smad7 (recombinant Tat-tagged protein containing amino acids 203-426 of human Smad7) (human) (UniProt O15105). Kind of test: sandwich ELISA: rabbit anti-Smad7 (Novus NBP1-87728) as capture, MAB2029 as detection, Tat-PYC-Smad7 spiked into dog serum, OD 450. In general terms: An ELISA detects its analyte on a solid surface through an enzyme-linked reagent.

The results in this text go back to patent US20240245751A1.

Sequence of UniProt O15105 (O15105 other isoform, or with tags, fused parts or gaps limits assumed): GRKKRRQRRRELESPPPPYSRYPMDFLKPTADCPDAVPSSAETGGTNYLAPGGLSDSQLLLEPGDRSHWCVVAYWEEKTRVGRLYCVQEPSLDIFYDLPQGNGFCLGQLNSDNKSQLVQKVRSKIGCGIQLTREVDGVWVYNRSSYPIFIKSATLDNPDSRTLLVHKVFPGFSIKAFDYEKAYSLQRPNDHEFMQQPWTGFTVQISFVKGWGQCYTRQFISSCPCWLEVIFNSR

For “Mouse monoclonal antibody (R&D #MAB2029) that recognized the c-terminus of human SMAD7”, the lowest concentration detected was 0.16 ng/mL.
